Assay results: publication PMC2806950

What was measured:
[1] = target: M.EcoKI, DNA methyltransferase component (M2S1) of the EcoKI type I R/M system (E. coli K12) (UniProt P08957); assay: fluorescence polarisation; competition with DNA: M.EcoKI titrated into 50 nM Ocr and 2 nM of a 21-bp DNA duplex fluorescently labelled at the 5' end; anisotropy of the DNA monitored
[2] = target: M.EcoKI, DNA methyltransferase component (M2S1) of the EcoKI type I R/M system (E. coli K12) (UniProt P08957); assay: ITC; Ocr (typically 40 uM) titrated into M.EcoKI (4 uM); 20 mM Tris-HCl pH 8.0, 6 mM MgCl2, 7 mM 2-mercaptoethanol, 100 uM SAM, with or without 500 mM NaCl; 10 to 30 °C
[3] = target: T1, M.EcoKI methyltransferase (M2S1 core of the EcoKI type I restriction/modification enzyme) (UniProt P05719+P08957); assay: ITC; details: pH 8.0, 25 °C, no NaCl, 6 mM MgCl2
[4] = target: T1, M.EcoKI methyltransferase (M2S1 core of the EcoKI type I restriction/modification enzyme); assay: ITC in two buffers of different ionisation enthalpy (comparison of C1 and C2); details: pH 8.0; 25 °C; no NaCl; 6 mM MgCl2; 20 mM Tris-HCl pH 8.0 (47.4 kJ/mol) versus 20 mM Hepes (20.5 kJ/mol)
[5] = test system: M.EcoKI (M2S1 methyltransferase core of EcoKI); assay: fluorescence anisotropy; set-up: unit not given here; details: Anisotropy: M.EcoKI titrated into 2 nM labelled duplex (with 50 nM Ocr in the competition series); buffer and temperature not given (ref. 12). ITC buffer …

## Ocr chemically modified with EDC/HOBt and ammonium hydroxide for 120 min (N-series) (from UniProt P03775 1-117) (natural protein)
[1]
  Kd: 3.77 nM

## Ocr chemically modified with EDC/HOBt and ammonium hydroxide for 30 min (N-series) (from UniProt P03775 1-117) (natural protein)
[1]
  Kd: 1.82 nM

## Ocr chemically modified with EDC/HOBt and dimethylamine for 60 min (D-series) (from UniProt P03775 1-117) (natural protein)
[1]
  Kd: 19.7 nM

## Ocr chemically modified with EDC/HOBt and ammonium hydroxide for 15 min (N-series) (from UniProt P03775 1-117) (natural protein)
[1]
  Kd: 0.56 nM

## Ocr chemically modified with EDC/HOBt and ammonium hydroxide for 60 min (N-series) (from UniProt P03775 1-117) (natural protein)
[2]
  stoichiometry N (Ocr dimer per molecule of M.EcoKI): 1
[1]
  Kd: 1.9 nM

## Ocr chemically modified with EDC/HOBt and dimethylamine for 180 min (D-series) (from UniProt P03775 1-117) (natural protein)
[1]
  Kd: 26.6 nM

## Ocr chemically modified with EDC/HOBt and dimethylamine for 15 min (D-series) (from UniProt P03775 1-117) (natural protein)
[2]
  stoichiometry N (Ocr dimer per molecule of M.EcoKI): 1
[1]
  Kd: 2.64 nM

## Ocr (overcome classical restriction; gene 0.3 protein), unmodified wild type
[3]; 20 mM Hepes in place of Tris-HCl (heat of ionization = 20.5 kJ/mol as printed), pH not restated, taken as 8.0
  ΔH: − 90.0 kJ/mol
[3]; 20 mM Tris-HCl, pH 8.0 (heat of ionization = 47.4 kJ/mol as printed)
  ΔH: − 86.2 kJ/mol
[4]
  net protonation change on binding (no number given): 0 protons

## 21-bp DNA duplex
[5]
  Kd: 2.1

## Ocr chemically modified with EDC/HOBt and dimethylamine for 120 min (D-series) (from UniProt P03775 1-117) (natural protein)
[1]
  Kd: 23.1 nM

## Ocr chemically modified with EDC/HOBt and dimethylamine for 30 min (D-series) (from UniProt P03775 1-117) (natural protein)
[1]
  Kd: 5.8 nM

## Ocr chemically modified with EDC/HOBt and ammonium hydroxide for 180 min (N-series) (from UniProt P03775 1-117) (natural protein)
[1]
  Kd: 12.6 nM
